The term Kd denotes the concentration at which binding is half-saturated. Lower therefore signals tighter binding.

One substance from patent publication US20240033343A1 can be followed below.

Targets include S1GGSGG (SARS-CoV-2) (UniProt P0DTC2); RAA (SARS-CoV-2; HIV) (UniProt P0DTC2); S2GSG (SARS-CoV-2) (UniProt P0DTC2); W1GSG (SARS-CoV-2) (UniProt P0DTC2); AAAA (SARS-CoV-2; HIV) (UniProt P0DTC2); S2GGSGG (SARS-CoV-2) (UniProt P0DTC2); W1GGSG (SARS-CoV-2; HIV) (UniProt P0DTC2); W2GSG (SARS-CoV-2; HIV) (UniProt P0DTC2); M1GGSGG (SARS-CoV-2) (UniProt P0DTC2); S1GSG (SARS-CoV-2) (UniProt P0DTC2).

The target of experiment [1] is W2GGSGG (SARS-CoV-2; HIV) (UniProt P0DTC2).
The target in experiment [2] is SARS-CoV-2 Sclamp (SARS-CoV-2) (UniProt P0DTC2).

Consider CR3022 (antibody), for which the Kd with S1GGSGG (SARS-CoV-2) was 690 pM; in [1], 1090 pM; in [2], 580 pM; in the experiment with RAA (SARS-CoV-2; HIV) it was 910 pM; with S2GSG (SARS-CoV-2) it was 1030 pM; with W1GSG (SARS-CoV-2), 1080 pM. Besides, the Kd in the experiment with AAAA (SARS-CoV-2; HIV) is 740 pM; in the experiment with S2GGSGG (SARS-CoV-2), 1180 pM; with W1GGSG (SARS-CoV-2; HIV), 890 pM; with W2GSG (SARS-CoV-2; HIV), 2060 pM; in the experiment with M1GGSGG (SARS-CoV-2), 570 pM; in the experiment with S1GSG (SARS-CoV-2), 1020 pM.
